WO2013125221A1
Where no end group is shown, it is not given here.

What was measured:
[1] = target: Herceptin scFv antibody (His-tagged, self-prepared); assay: peptide magnetic bead immunoprecipitation, SDS-PAGE / anti-His blot, band intensity semi-quantified
[2] = target: Herceptin scFv antibody (His-tagged, self-prepared); assay: peptide magnetic bead immunoprecipitation, SDS-PAGE / anti-His blot, semi-quantitative

| Binder | Herceptin scFv antibody recovery rate [1] [%] | Herceptin scFv antibody recovery rate [2] [%] |
| --- | --- | --- |
| FHRSHWYQTWVP (also: biotinylated (site not given here)) [code 166 peptide] | 30 |  |
| WSEYDIPTPQIP (also: biotinylated (site not given here)) [code 4 peptide] | 30 | 23 |
